Assay results: US6926883B1, “Group (VII) transition-metal complexes with multidentate aminopolycarboxylate ligands and a kit for producing them” (Mallinckrodt Inc, priority 1999, dated 2005)
One block for each compound: values may come before it.

What was measured:
in vivo [1] = assay: in vivo; design: species or system Lewis rats; settings: male, Lewis, rat, iv, 50 uCi, total radioactivity
Description: (§1) These studies were performed to evaluate the biodistribution and imaging potential of these compounds in Lewis rats bearing CA20948 rat pancreatic tumor implants. For each study, six (6) male Lewis rats bearing CA20948 tumor implants were anesthetized with Metofane gas and injected via the jugular vein with 200 μL (using the compounds of Example 2) or 50 μL (using the compound of Example 3) of test article containing ˜50 μCi of activity. The animals were imaged for 100K counts under a gamma camera at 30 minute (n=3) and 4 hours (n=3) post injection after which time they were sacrificed and the following tissues removed for assay: blood, liver, kidneys, muscle, spleen, pancreas, small intestines, adrenals and tumor. The data are presented as % injected dose per gram and % injected dose per whole organ. The comparative data are also represented graphically.

[2] = tested on: CA20948 rat pancreatic tumor implants; assay: in vivo; design: species or system Lewis rats
Description: as §1

[3] = design: species or system Lewis rats; settings: rat, in vivo
Description: During the general biodistribution studies, one additional animal per study was ligated to prevent urination prior to injection. The animal was kept anesthetized for 3 hours post injection, and was subsequently sacrificed, urine removed. The volume and activity of the urine was measured, and a sample was analyzed by HPLC using the method described above.

in vivo [4] = type: in vivo, Lewis rats; settings: Lewis, rat, in vivo, total radioactivity
Description: (§2) Two rats for each group were used. Group 1 received 500 μL PBS administered subcutaneously in the nape of the neck 30 minutes prior to the injection of [^99mTc(CO)3(DTPA′-Y^3-Octreotate)]. Group 2 received 350 μg Y^3-Octreotate in 500 μL phosphate buffered saline (PBS) administered subcutaneously in the nape of the neck 30 minutes prior to the injection of [^99mTc(CO)3(DTPA′-Y^3-Octreotate)].
(§3) 30 minutes after injection of the cold peptide or saline control, the animals were anesthetized with Metofane gas and injected with 50 μL (50 μCi) of [^99mTc(CO)3(DTPA′-Y^3-Octreotate)]. At three hours post injection the animals were sacrificed, blood samples taken, and then the rats were scintigraphed for 100K counts (FIG. 3). At the conclusion of the scintigraphy, the animals were necropsied, and the following tissues removed for radioassay: liver, kidneys, muscle, spleen, heart, pancreas, adrenals, and tumor. The data were calculated as % injected dose per gram and % injected dose per whole organ.

SST-2 Receptors = molecular target: T1, SST-2 Receptors (Rattus norvegicus, UniProt P30680); assay: in vivo; type: in vivo, Lewis rats; settings: 350 μg cold Y3-Octreotate 30 minutes prior; three hours post injection
T1 construct: from tissue; host or cells: Lewis rats bearing CA20948 tumor implants
Description: as §2, §3

T1 sequence (P30680 whole entry): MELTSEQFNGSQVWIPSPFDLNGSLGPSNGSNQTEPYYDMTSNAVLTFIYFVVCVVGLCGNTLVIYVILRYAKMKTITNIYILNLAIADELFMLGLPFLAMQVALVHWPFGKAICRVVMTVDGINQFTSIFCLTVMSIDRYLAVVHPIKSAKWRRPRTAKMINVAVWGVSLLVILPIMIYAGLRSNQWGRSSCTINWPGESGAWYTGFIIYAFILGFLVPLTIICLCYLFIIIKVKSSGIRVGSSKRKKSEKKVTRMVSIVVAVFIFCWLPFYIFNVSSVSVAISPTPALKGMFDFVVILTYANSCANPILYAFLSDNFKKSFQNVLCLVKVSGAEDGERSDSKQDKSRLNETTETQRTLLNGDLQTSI

Compound: C[C@@H](O)[C@H](NC(=O)[C@@H]1CSSC[C@H](NC(=O)[C@@H](Cc2ccccc2)NC(=O)CN(CCN(CCN(CC(=O)O)CC(=O)O)CC(=O)O)CC(=O)O)C(=O)N[C@@H](Cc2ccc(O)cc2)C(=O)N[C@H](Cc2c[nH]c3ccccc23)C(=O)N[C@@H](CCCCN)C(=O)N[C@@H]([C@@H](C)O)C(=O)N1)C(=O)O [MP-2138, Tc-99m(CO)3-n-DTPA-Tyr-3-Octreotate, metal not drawn]
tissue uptake at 0.5 h (in vivo [1]; Blood % ID/g): 0.735 ± 0.027 %ID/g
tissue uptake at 4 h (in vivo [1]; Blood % ID/g): 0.218 ± 0.01 %ID/g
tissue uptake at 0.5 h (in vivo [1]; Kidney % ID/g): 5.282 ± 0.014 %ID/g
tissue uptake at 4 h (in vivo [1]; Kidney % ID/g): 5.703 ± 0.052 %ID/g
tissue uptake at 0.5 h (in vivo [1]; Liver % ID/g): 0.567 ± 0.015 %ID/g
tissue uptake at 4 h (in vivo [1]; Liver % ID/g): 0.516 ± 0.034 %ID/g
tissue uptake at 0.5 h (in vivo [1]; Pancreas % ID/g): 1.56 ± 0.11 %ID/g
tissue uptake at 4 h (in vivo [1]; Pancreas % ID/g): 1.76 ± 0.089 %ID/g
tissue uptake at 0.5 h (in vivo [1]; Tumor % ID/g): 0.847 ± 0.078 %ID/g
tissue uptake at 4 h (in vivo [1]; Tumor % ID/g): 0.822 ± 0.13 %ID/g
tissue to tissue ratio at 0.5 h (in vivo [1]; Tumor/Blood): 1.1
tissue to tissue ratio at 4 h (in vivo [1]; Tumor/Blood): 3.7
tissue to tissue ratio at 0.5 h (in vivo [1]; Tumor/Kidney): 0.14
tissue to tissue ratio at 4 h (in vivo [1]; Tumor/Kidney): 0.14
tissue to tissue ratio at 0.5 h (in vivo [1]; Tumor/Liver): 1.3
tissue to tissue ratio at 4 h (in vivo [1]; Tumor/Liver): 1.6

Reduction of uptake in the adrenals in somatostatin receptor-blocked animals (SST-2 Receptors): 81%
Reduction of uptake in the pancreas in somatostatin receptor-blocked animals (SST-2 Receptors): 95%
Reduction of uptake in the tumor in somatostatin receptor-blocked animals (SST-2 Receptors): 90%
Compound: C[C@@H](O)[C@H](NC(=O)[C@@H]1CSSC[C@H](NC(=O)[C@@H](Cc2ccccc2)NC(=O)CC(C(=O)O)N(CCN(CC(=O)O)CC(=O)O)CCN(CC(=O)O)CC(=O)O)C(=O)N[C@@H](Cc2ccc(O)cc2)C(=O)N[C@H](Cc2c[nH]c3ccccc23)C(=O)N[C@@H](CCCCN)C(=O)N[C@@H]([C@@H](C)O)C(=O)N1)C(=O)O (stereo partly drawn) [MP-2148, Tc-99m(CO)3-DTPA′-Tyr-3-Octreotate, metal not drawn]
tissue uptake at 0.5 h (in vivo [1]; Blood % ID/g): 0.471 ± 0.035 %ID/g
tissue uptake at 4 h (in vivo [1]; Blood % ID/g): 0.114 ± 0.005 %ID/g
tissue uptake at 4 h (in vivo [1]; Blood (% ID/g at 4 hours p.i.)): 0.083 %ID/g
tissue uptake at 0.5 h (in vivo [1]; Kidney % ID/g): 2.14 ± 0.12 %ID/g
tissue uptake at 4 h (in vivo [1]; Kidney % ID/g): 3.14 ± 0.08 %ID/g
tissue uptake at 4 h (in vivo [1]; Kidney (% ID/g at 4 hours p.i.)): 3.27 %ID/g
tissue uptake at 0.5 h (in vivo [1]; Liver % ID/g): 0.494 ± 0.011 %ID/g
tissue uptake at 4 h (in vivo [1]; Liver % ID/g): 0.363 ± 0.022 %ID/g
tissue uptake at 4 h (in vivo [1]; Liver (% ID/g at 4 hours p.i.)): 0.19 %ID/g
tissue uptake at 0.5 h (in vivo [1]; Pancreas % ID/g): 1.15 ± 0.032 %ID/g
tissue uptake at 4 h (in vivo [1]; Pancreas % ID/g): 0.956 ± 0.054 %ID/g
tissue uptake at 4 h (in vivo [1]; Pancreas (% ID/g at 4 hours p.i.)): 0.99 %ID/g
tissue uptake at 0.5 h (in vivo [1]; Tumor % ID/g): 0.793 ± 0.041 %ID/g
tissue uptake at 4 h (in vivo [1]; Tumor % ID/g): 0.769 ± 0.069 %ID/g
tissue uptake at 4 h (in vivo [1]; Tumor (% ID/g at 4 hours p.i.)): 1.06 %ID/g
tissue to tissue ratio at 0.5 h (in vivo [1]; Tumor/Blood): 1.7
tissue to tissue ratio at 4 h (in vivo [1]; Tumor/Blood): 6.7
tissue to tissue ratio at 0.5 h (in vivo [1]; Tumor/Kidney): 0.37
tissue to tissue ratio at 4 h (in vivo [1]; Tumor/Kidney): 0.25
tissue to tissue ratio at 0.5 h (in vivo [1]; Tumor/Liver): 1.6
tissue to tissue ratio at 4 h (in vivo [1]; Tumor/Liver): 2.1
Amount of activity in the liver and GI tract compared to [99mTc(CO)3(His-Y3-Octreotate)] [2]: significantly less
Biodistribution characteristics vs iso-DTPA-Y3-Octreotate and n-DTPA-Y3-Octreotate [2]: better biodistribution characteristics
Hepatobiliary uptake and clearance compared to [99mTc(CO)3(His-Y3-Octreotate)] [2]: less hepatobiliary uptake and clearance
Activity of Urine [3]: 10.4 μCi
Metabolism: state of compound in urine by HPLC analysis [3]: essentially intact
Volume of Urine [3]: 1.5 mL
tissue uptake dose at 3 h (in vivo [4]; 50 uCi, Adrenals % ID/organ): 0.042 %ID
tissue uptake at 3 h (in vivo [4]; 50 uCi, Blood % ID/g): 0.115 %ID/g
tissue uptake dose at 3 h (in vivo [4]; 50 uCi, Blood % ID/organ): 1.44 %ID
tissue uptake at 3 h (in vivo [4]; 50 uCi, Heart % ID/g): 0.062 %ID/g
tissue uptake dose at 3 h (in vivo [4]; 50 uCi, Heart % ID/organ): 0.049 %ID
tissue uptake at 3 h (in vivo [4]; 50 uCi, Kidneys % ID/g): 2.98 %ID/g
tissue uptake dose at 3 h (in vivo [4]; 50 uCi, Kidneys % ID/organ): 6.82 %ID
tissue uptake at 3 h (in vivo [4]; 50 uCi, Liver % ID/g): 0.236 %ID/g
tissue uptake dose at 3 h (in vivo [4]; 50 uCi, Liver % ID/organ): 2.35 %ID
tissue uptake at 3 h (in vivo [4]; 50 uCi, Muscle % ID/g): 0.058 %ID/g
tissue uptake dose at 3 h (in vivo [4]; 50 uCi, Muscle % ID/organ): 6.6 %ID
tissue uptake at 3 h (in vivo [4]; 50 uCi, Pancreas % ID/g): 0.916 %ID/g
tissue uptake dose at 3 h (in vivo [4]; 50 uCi, Pancreas % ID/organ): 0.762 %ID
tissue uptake at 3 h (in vivo [4]; 50 uCi, Spleen % ID/g): 0.081 %ID/g
tissue uptake dose at 3 h (in vivo [4]; 50 uCi, Spleen % ID/organ): 0.044 %ID
tissue uptake at 3 h (in vivo [4]; 50 uCi, Tumor % ID/g): 1.11 %ID/g
tissue uptake dose at 3 h (in vivo [4]; 50 uCi, Tumor % ID/organ): 5.18 %ID
tissue uptake dose at 3 h (in vivo [4]; Adrenals % ID/organ): 0.008 %ID
tissue uptake dose at 3 h (in vivo [4]; Blood % ID/organ): 1.59 %ID
tissue uptake dose at 3 h (in vivo [4]; Heart % ID/organ): 0.057 %ID
tissue uptake dose at 3 h (in vivo [4]; Kidneys % ID/organ): 6.24 %ID
tissue uptake dose at 3 h (in vivo [4]; Liver % ID/organ): 2.61 %ID
tissue uptake dose at 3 h (in vivo [4]; Muscle % ID/organ): 6.93 %ID
tissue uptake dose at 3 h (in vivo [4]; Pancreas % ID/organ): 0.052 %ID
tissue uptake dose at 3 h (in vivo [4]; Spleen % ID/organ): 0.042 %ID
tissue uptake dose at 3 h (in vivo [4]; Tumor % ID/organ): 0.493 %ID

Compound: Tc-99m(CO)3-His-Tyr-3-Octreotate [MP-2377, reference compound]
Blood (% ID/g at 4 hours p.i.) [2]: 0.03 % ID/g
Kidney (% ID/g at 4 hours p.i.) [2]: 1.64 % ID/g
Liver (% ID/g at 4 hours p.i.) [2]: 0.28 % ID/g
Pancreas (% ID/g at 4 hours p.i.) [2]: 2.67 % ID/g
Tumor (% ID/g at 4 hours p.i.) [2]: 1.00 % ID/g
Activity of Urine [3]: 5.8 μCi
Metabolism: state of compound in urine by HPLC analysis [3]: essentially intact
Volume of Urine [3]: 1.5 mL

Compound: Tc-99m(CO)3-iso-DTPA-Tyr-3-Octreotate [MP-2423]
Tumor/Liver [2]: 3
